The assay deals with MDA-modified bovine serum albumin (bovine), P02769. As to the kind of experiment: MST; microscale thermophoresis with both binding partners in fluid phase. The settings on record: remark: other sources report otherwise.
MDA-modified bovine serum albumin (bovine), P02769, sequence (P02769 25-607): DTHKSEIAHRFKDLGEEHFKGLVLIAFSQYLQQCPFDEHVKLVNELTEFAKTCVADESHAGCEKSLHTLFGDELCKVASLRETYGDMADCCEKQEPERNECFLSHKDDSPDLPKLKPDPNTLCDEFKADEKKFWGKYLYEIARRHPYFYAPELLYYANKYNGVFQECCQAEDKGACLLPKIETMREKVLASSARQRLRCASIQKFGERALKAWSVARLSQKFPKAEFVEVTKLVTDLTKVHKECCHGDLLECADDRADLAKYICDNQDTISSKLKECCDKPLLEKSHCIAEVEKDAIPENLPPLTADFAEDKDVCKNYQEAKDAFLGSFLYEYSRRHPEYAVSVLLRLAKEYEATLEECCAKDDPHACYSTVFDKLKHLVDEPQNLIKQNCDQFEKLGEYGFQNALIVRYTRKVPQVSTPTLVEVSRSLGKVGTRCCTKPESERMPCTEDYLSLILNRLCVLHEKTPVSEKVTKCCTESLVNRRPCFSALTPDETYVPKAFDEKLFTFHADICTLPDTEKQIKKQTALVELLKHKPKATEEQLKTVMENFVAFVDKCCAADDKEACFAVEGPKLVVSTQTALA

B1: complement factor H, P08603 19-1231 (natural protein)
chain: EDCNELPPRRNTEILTGSWSDQTYPEGTQAIYKCRPGYRSLGNVIMVCRKGEWVALNPLRKCQKRPCGHPGDTPFGTFTLTGGNVFEYGVKAVYTCNEGYQLLGEINYRECDTDGWTNDIPICEVVKCLPVTAPENGKIVSSAMEPDREYHFGQAVRFVCNSGYKIEGDEEMHCSDDGFWSKEKPKCVEISCKSPDVINGSPISQKIIYKENERFQYKCNMGYEYSERGDAVCTESGWRPLPSCEEKSCDNPYIPNGDYSPLRIKHRTGDEITYQCRNGFYPATRGNTAKCTSTGWIPAPRCTLKPCDYPDIKHGGLYHENMRRPYFPVAVGKYYSYYCDEHFETPSGSYWDHIHCTQDGWSPAVPCLRKCYFPYLENGYNQNYGRKFVQGKSIDVACHPGYALPKAQTTVTCMENGWSPTPRCIRVKTCSKSSIDIENGFISESQYTYALKEKAKYQCKLGYVTADGETSGSITCGKDGWSAQPTCIKSCDIPVFMNARTKNDFTWFKLNDTLDYECHDGYESNTGSTTGSIVCGYNGWSDLPICYERECELPKIDVHLVPDRKKDQYKVGEVLKFSCKPGFTIVGPNSVQCYHFGLSPDLPICKEQVQSCGPPPELLNGNVKEKTKEEYGHSEVVEYYCNPRFLMKGPNKIQCVDGEWTTLPVCIVEESTCGDIPELEHGWAQLSSPPYYYGDSVEFNCSESFTMIGHRSITCIHGVWTQLPQCVAIDKLKKCKSSNLIILEEHLKNKKEFDHNSNIRYRCRGKEGWIHTVCINGRWDPEVNCSMAQIQLCPPPPQIPNSHNMTTTLNYRDGEKVSVLCQENYLIQEGEEITCKDGRWQSIPLCVEKIPCSQPPQIEHGTINSSRSSQESYAHGTKLSYTCEGGFRISEENETTCYMGKWSSPPQCEGLPCKSPPEISHGVVAHMSDSYQYGEEVTYKCFEGFGIDGPAIAKCLGEKWSHPPSCIKTDCLSLPSFENAIPMGEKKDVYKAGEQVTYTCATYYKMDGASNVTCINSRWTGRPTCRDTSCVNPPTVQNAYIVSRQMSKYPSGERVRYQCRSPYEMFGDEEVMCLNGNWTEPPQCKDSTGKCGPPPPIDNGDITSFPLSVYAPASSVEYQCQNLYQLEGNKRITCRNGQWSEPPKCLHPCVISREIMENYNIALRWTAKQKLYSRTGESVEFVCKRGYRLSSRSHTLRTTCWDGKLEYPTCAKR
modifications: here or on the partner: malondialdehyde-acetaldehyde (MAA) / malondialdehyde (MDA) adducts; sites not stated
For orientation: Kd means the free concentration of one partner at which half of the binding sites on the other are occupied at equilibrium, for simple one-to-one binding. Lower therefore signals a tighter complex. For B1, the Kd is 2440 nM.

Values taken from article PMC7211993.
